# Source: the supplement of paper PMC7877785
# ± gives the uncertainty stated by the source.
# Assay: self-splicing fitness, log relative to wild type (ln ratio); higher = more splicing; Tetrahymena group I intron in knt gene, E. coli kanamycin selection, DiMSum; sequences stand for … in CUCUCU…GGAGGGAAAAGUUAUCAGGCAUGCACCUGGUAGCUAGUCUUUAAACCAAUAGAUUGCAUCGGUUUAAAAGGCAAGACCGUCAAAUUGCGGGAAAGGGGUCAACAGCCGUUCAGUACCAAGUCUCAGGGGAAACUUUGAGAUGGCCUUGCAAAGGGUAUGGUAAUAAGCUGACGGACAUGGUCCUAACCACGCAGCCAAGUCCUAAGUCAACAGAUCUUCUGUUGAUAUGGAUGCAGUUCACAGACUAAAUGUCGGUCGGGGAAGAUGUAUUCUUCUCAUAAGAUAUAGUCGGACCUCUCCUUAAUGGGAGCUAGCGGAUGAAGUGAUGCAACACUGGAGCCGCUGGGAACUAAUUUGUAUGCGAAAGUAUAUUGAUUAGUUUUGGAGUACUCGUGGUCG
# How it was run: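 Six replicate transformations of E. coli BL21(DE3) with a pET-22b(+) library were grown overnight at 37°C or 30°C. The library randomised all eight P1ex-region intron nucleotides, the intron lying in the knt kanamycin-resistance gene, and plates were LB agar with or without 25 μg/mL kanamycin plus 100 μg/mL carbenicillin, 50 μM IPTG and 0.2% rhamnose. Pooled colonies were amplicon-sequenced on an Illumina HiSeq 2500, and fitness is the DiMSum error-weighted combination of wild-type-normalised replicate fold changes, kanamycin versus none.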
Sequence,self-splicing fitness (ln) (30 °C),self-splicing fitness (ln) (37 °C)
CCAAAGCAAUAUUACGGAUU,-3.94 ± 0.25,-3.55 ± 0.35
CCAAAGCAAUAUUACGGCAG,-0.931 ± 0.074,-0.49 ± 0.11
CCAAAGCAAUAUUACGGCUC,-3.44 ± 0.29,-2.32 ± 0.25
CCAAAGCAAUAUUACGGGUA,-2.96 ± 0.24,-3.34 ± 0.43
CCAAAGCAAUAUUACGGUAC,-3.5 ± 0.24,-3.13 ± 0.29
CCAAAGCAAUAUUACGGUGU,-3.74 ± 0.19,-2.97 ± 0.15
CCAAAGCAAUAUUACGUACU,-3.69 ± 0.2,-2.76 ± 0.27
CCAAAGCAAUAUUACGUAUC,-1.28 ± 0.11,-2.76 ± 0.24
CCAAAGCAAUAUUACGUCAA,-3.22 ± 0.14,-2.02 ± 0.13
CCAAAGCAAUAUUACGUGGA,-3.55 ± 0.15,-2.81 ± 0.21
CCACAGCAAUAUUACGAACU,-2.98 ± 0.17,-3.23 ± 0.32
CCACAGCAAUAUUACGACCC,-4.02 ± 0.39,–
CCACAGCAAUAUUACGACGA,-3.12 ± 0.19,-2.09 ± 0.16
CCACAGCAAUAUUACGAGAA,-2.74 ± 0.26,-3.69 ± 0.39
CCACAGCAAUAUUACGAUCG,-0.326 ± 0.06,0.703 ± 0.077
CCACAGCAAUAUUACGAUUC,-3.17 ± 0.11,-2.23 ± 0.14
CCACAGCAAUAUUACGCAGA,-3.08 ± 0.17,-2.89 ± 0.16
CCACAGCAAUAUUACGCAUC,-3.23 ± 0.19,-2.31 ± 0.2
CCACAGCAAUAUUACGCUAA,-3.8 ± 0.22,-1.62 ± 0.15
CCACAGCAAUAUUACGCUAG,-3.27 ± 0.12,-1.36 ± 0.1
CCACAGCAAUAUUACGCUUA,-3.43 ± 0.16,-2.98 ± 0.18
CCACAGCAAUAUUACGCUUC,-3.25 ± 0.47,–
CCACAGCAAUAUUACGGCGC,-3.56 ± 0.16,-2.17 ± 0.13
CCACAGCAAUAUUACGGCUU,-3.62 ± 0.14,-2.71 ± 0.18

Sequence,self-splicing fitness (ln) (30 °C),self-splicing fitness (ln) (37 °C)
CCACAGCAAUAUUACGGGCC,-4.14 ± 0.25,-2.5 ± 0.18
CCACAGCAAUAUUACGGUGG,-4.51 ± 0.17,-2.28 ± 0.11
CCACAGCAAUAUUACGUCCA,-3.23 ± 0.19,-1.59 ± 0.15
CCACAGCAAUAUUACGUCUC,-3.01 ± 0.17,-2.66 ± 0.16
CCACAGCAAUAUUACGUGAG,-0.847 ± 0.051,-0.739 ± 0.065
CCACAGCAAUAUUACGUGGC,-3.84 ± 0.12,-2.86 ± 0.12
CCACAGCAAUAUUACGUUCA,-3.27 ± 0.16,-2.5 ± 0.19
CCACAGCAAUAUUACGUUCU,-2.77 ± 0.1,-3.7 ± 0.19
CCAGAGCAAUAUUACGACCG,-0.53 ± 0.14,-0.622 ± 0.22
CCAGAGCAAUAUUACGACGG,-2.88 ± 0.18,-2.02 ± 0.28
CCAGAGCAAUAUUACGACUG,-1.05 ± 0.1,-0.605 ± 0.15
CCAGAGCAAUAUUACGACUU,-3.55 ± 0.17,-2.61 ± 0.23
CCAGAGCAAUAUUACGAGGA,-2.96 ± 0.23,-2.46 ± 0.27
CCAGAGCAAUAUUACGAGUG,-1.2 ± 0.073,-0.146 ± 0.092
CCAGAGCAAUAUUACGCAAA,-2.79 ± 0.48,-1.57 ± 0.33
CCAGAGCAAUAUUACGCAAC,-4.18 ± 0.24,-2.94 ± 0.12
CCAGAGCAAUAUUACGCAGG,-3.56 ± 0.15,-2.53 ± 0.17
CCAGAGCAAUAUUACGCAUG,-2.64 ± 0.16,-1.59 ± 0.16
CCAGAGCAAUAUUACGCGCG,-1.19 ± 0.1,-0.59 ± 0.14
CCAGAGCAAUAUUACGGAUG,-2.56 ± 0.15,-1.3 ± 0.18
CCAGAGCAAUAUUACGGCGA,-3.16 ± 0.26,-2.65 ± 0.29
CCAGAGCAAUAUUACGGCUG,-1.9 ± 0.083,-1 ± 0.12
CCAGAGCAAUAUUACGGGCU,-3.24 ± 0.3,–
CCAGAGCAAUAUUACGGGGU,-2.35 ± 0.43,-2.78 ± 0.34
